# Where two headings read alike, the source gives them in different places.
# Experiments:
# [1] = target: Treponema pallidum adhesin protein fragment rTp0483 (recombinant C-terminal portion of Tp0483) (Treponema pallidum); assay: SPR
# [2] = target: Treponema pallidum adhesin protein fragment rTp0483 (recombinant C-terminal portion of Tp0483) (Treponema pallidum); assay: SPR; remark: listed apart in the source
# [3] = target: Treponema pallidum adhesin protein fragment rTp0483 (recombinant C-terminal portion of Tp0483) (Treponema pallidum); assay: SPR; remark: listed apart in the source
# [4] = target: Treponema pallidum adhesin protein fragment rTp0483 (recombinant C-terminal portion of Tp0483) (Treponema pallidum); assay: SPR; remark: listed apart in the source
# [5] = target: Treponema pallidum adhesin protein fragment rTp0483 (recombinant C-terminal portion of Tp0483) (Treponema pallidum); assay: quartz crystal microbalance
# [6] = target: Treponema pallidum adhesin protein fragment rTp0483 (recombinant C-terminal portion of Tp0483) (Treponema pallidum); assay: quartz crystal microbalance; remark: listed apart in the source
# [7] = target: Treponema pallidum adhesin protein fragment rTp0483 (recombinant C-terminal portion of Tp0483) (Treponema pallidum); assay: quartz crystal microbalance; remark: listed apart in the source
# [8] = target: Treponema pallidum adhesin protein fragment rTp0483 (recombinant C-terminal portion of Tp0483) (Treponema pallidum); assay: quartz crystal microbalance; remark: listed apart in the source
# [9] = target: Human plasma fibronectin (human); assay: SPR
# Sequence of Treponema pallidum adhesin protein fragment rTp0483 (recombinant C-terminal portion of Tp0483) (Treponema pallidum) (O83496 22-374): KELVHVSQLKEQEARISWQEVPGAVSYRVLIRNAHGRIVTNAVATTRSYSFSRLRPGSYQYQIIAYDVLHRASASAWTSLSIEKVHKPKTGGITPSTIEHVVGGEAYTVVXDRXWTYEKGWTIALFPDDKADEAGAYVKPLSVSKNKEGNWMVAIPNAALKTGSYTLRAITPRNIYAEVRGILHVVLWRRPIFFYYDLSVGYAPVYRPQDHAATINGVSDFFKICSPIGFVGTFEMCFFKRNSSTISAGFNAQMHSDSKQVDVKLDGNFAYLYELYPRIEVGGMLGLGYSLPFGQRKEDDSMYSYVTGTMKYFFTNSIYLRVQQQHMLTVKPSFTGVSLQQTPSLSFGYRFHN
substance,measurement,setting,value
Human plasma fibronectin (natural protein),"KA1 (bivalent analyte model, reaction 1)",[1],1.53e+09 M⁻¹
same,"KA2 (bivalent analyte model, reaction 2)",[1],225 1/RU
same,"KA1 (bivalent analyte model, reaction 1)",[2],1.03e+09 M⁻¹
same,"KA2 (bivalent analyte model, reaction 2)",[2],403 1/RU
same,surface mass density of FN bound (SPR) in the presence of anti-Tp0483#1,[2],373 pg/mm^2
same,surface mass density of FN bound (SPR) in the presence of anti-Tp0483#2,[2],270 pg/mm^2
same,"surface mass density of FN bound (SPR), FN alone",[2],282 pg/mm^2
same,"surface mass density of FN bound (SPR), FN preincubated with 20 µg/mL anti-RGD",[2],91 pg/mm^2
same,"surface mass density of FN bound (SPR), FN preincubated with 50 µg/mL anti-RGD",[2],47 pg/mm^2
same,"surface mass density of FN bound (SPR), no antibody",[2],846 pg/mm^2
same,"KA2 (bivalent analyte model, reaction 2)",[3],0.0225 1/RU
same,"KD1 (inverse of KA1, reaction 1 of the bivalent analyte model)",[3],0.65 nM
same,"KA2 (bivalent analyte model, reaction 2)",[4],0.0403 1/RU
same,"KD1 (inverse of KA1, reaction 1 of the bivalent analyte model)",[4],0.97 nM
same,surface mass density of FN bound (QCM),[5],60 pg/mm^2
same,surface mass density of FN bound (QCM),[6],3.5 pg/mm^2
same,surface mass density of FN bound (QCM),[7],1380 pg/mm^2
same,surface mass density of FN bound (QCM),[8],363 pg/mm^2
"Peptide D2, residues 316-333 of the complete Tp0483 sequence","% FN binding to rTp0483 with the peptide, of FN alone",[9],88%
Type A gelatin,surface mass density of gelatin bound (SPR) on FN adsorbed on the SAM,[9],940 pg/mm^2
same,surface mass density of gelatin bound (SPR) on rTp0483+FN,[9],211 pg/mm^2
